Response data for one variant are collected here from PMC3314686 (2012).

To fix the notation:
B1: GFP-DOR (human DOR/TP53INP2, full length) [modified: [35S]methionine label; [35S]methionine label] [human] / GST-LC3B (full-length proform) [human] (parent complex)
chain 1: MFQRLSSLFFSTPSPPEDPDCPRAFVSEEDEVDGWLIIDLPDSYAAPPSPGAAPAPAGRPPPAPSLMDESWFVTPPACFTAEGPGLGPARLQSSPLEDLLIEHPSMSVYVTGSTIVLEPGSPSPLPDAALPDGDLSEGELTPARREPRAARHAAPLPARAALLEKAGQVRRLQRARQRAERHALSAKAVQRQNRARESRPRRSKNQSSFIYQPCQRQFNY
chain 2: not shown

Variants of B1 are the subject of the experiment. Description: GST pull-down; in vitro translated [35S]methionine-labelled GFP fusion; three independent experiments; parent: 21; read off a plot.
With chain 1 W35A, chain 1 I38A, the response was ~3.4 % Binding.
